Consider 2 molecules from patent US20030096367A1 (WASHINGTON UNIVERSITY, published 2003).

The target in test [1] is T1, wild type human Bcl-2 (human, UniProt P10415 1-239).
T1 construct: also called hBcl-2; human Bcl-2 wild-type
Kind of test: immunoprecipitation of human Bcl-2 from double transfected FL5.12 cells, Western blot with anti-mouse Bcl-2 antibody (FIG. 21). From the text: (§1) Immunoprecipitates were washed (unless indicated otherwise) once in lysis buffer followed by a wash in lysis buffer without NP-40. Immunoprecipitates were solubilized with SDS-PAGE sample buffer and electrophoresed through 12.5% SDS-polyacrylamide gels. Gels containing (³⁵ S)methionine labeled proteins were fixed with 10% glacial acetic acid and 30% methanol overnight, enhanced by impregnating with a commercial fluorography enhancing solution (Enhance by DuPont) for 60′, and […] in water for 30′. Gels were then dried and autoradiography performed at−70° C.
(§2) For immunoblots, proteins were electrotransferred overnight at 4° C. on nitrocellulose membranes. Filters were blocked for 2 hours with phosphate-buffered saline containing 3% non-fat milk. All additional immunostaining steps were performed in phosphate-buffered saline with 0.05% Tween-20 (PBS-Tween) at room temperature. Filters were incubated with primary antibody for 2 hours. Species specific biotinylated secondary antibodies (1:300) were also reacted for 2 hours. Immunoblots were reacted with horseradish-peroxidase-Streptavidin (1:1000) for 1 hour. Filters were washed in PBX-Tween 4 times for 5′ between each step and were developed with […] (BioRad) enhanced with nickel chloride (0.03%).
(§3) In FIG. 21 cells are created that bear two expression constructs. The Dα15 cell line is an FL5.12 bearing human Bcl-2 wild-type and mouse Bcl-2 wild-type vector. The DN2 bears a control Neomycin resistant expression vector and mouse Bcl-2 wild-type vector. The clone DSM4-5 contains mutant Bcl-2 of domain I and a mouse Bcl-2 wild-type whereas the DSM-4 contains another Bcl-2 mutant of human origin with mouse Bcl-2 wild-type. […] In FIG. 21B we see a primary immunoprecipitation of either wild-type human Bcl-2 or the mutated human Bcl-2 in which the 3-4 and 4-7 mutants have no associated Bax. Those immunoprecipitations are then developed by Western blot analysis with an anti-mouse Bcl-2 antibody. Both the wild-type human Bcl-2 as well as the two mutants mI 3-4 and mI 4-7 both associate with the wild-type mouse Bcl-2.

In test [2] the target is T2, human Bcl-2 mutant mI-4 (glutamic acid for the glycine in the WGR sequence of domain I) (human, UniProt P10415 1-239).
T2 construct: also called mI 4-7; mI4-7
The test is described as above.
Description: as §1, §2, §3

The target in test [3] is T3, human Bcl-2 mutant mI-3 (alanine for the glycine in the WGR sequence of domain I) (human, UniProt P10415 1-239).
T3 construct: also called mI 3-4; mI3-4
The description is as above.
Description: as §1, §2, §3

The target of test [4] is T2, human Bcl-2 mutant mI-4 (glutamic acid …). Briefly: immunoprecipitation of radiolabeled FL5.12 and 2B4 stable transfectants (FIG. 18). The protocol: (§4) Prior to metabolic labeling, cells were washed once in prewarmed, serum-free, methionine-free Dulbecco's medium. Cells were resuspended at 3-5×10⁶ cells/ml in methionine-free Dulbecco's medium supplemented with 10% dialyzed FCS and either 5% complete medium or 5% WEHI 3B supernatant. Metabolic labeling was performed with 40 μCi/ml of ³⁵S)methionine, (³⁵S)cysteine for 9-12 hours before lysis. All steps of the immunoprecipitation were carried out on ice or in the cold room. Cells were washed twice with cold phosphate-buffered saline and lysed in an NP-40 isotonic lysis buffer with freshly added protease inhibitors (142.5 mM KCl, 5 mM MgCl₂, 10 mM HEPES pH:7.2, 1 mM EGTA, 0.2% NP-40, 0.2 mM phenylmethylsulfonyl fluoride, 0.1% Aprotinin, 0.7 μg/ml Pepstatin and 1 μg/ml Leupeptin) by nutation for 30′. Nuclei and unlysed cellular debris were removed by centrifugation at […] for 10′. Lysates were precleared with 10% v/v Protein A-Sepharose (Prot.A-S) for 30′ which was removed by centrifugation at 400×g for 2′. In experiments, the lysates were also mixed with 10× excess cold cells lysates for 15′ prior to the addition of the antibody. Specific antibodies were added for 90′ and immunoprecipitates were captured with 10% v/v Prot.A-S for 60′. […]

The target in test [5] is T3, human Bcl-2 mutant mI-3 (alanine for …). The test is described as above. The protocol:
as §4

B1: murine Bcl-2 (wild type) (other, UniProt P10417 1-236, looked up)
chain: MAQAGRTGYDNREIVMKYIHYKLSQRGYEWDAGDADAAPLGAAPTPGIFSFQPESNPMPAVHRDMAARTSPLRPLVATAGPALSPVPPVVHLTLRRAGDDFSRRYRRDFAEMSSQLHLTPFTARGRFATVVEELFRDGVNWGRIVAFFEFGGVMCVESVNREMSPLVDNIALWMTEYLNRHLHTWIQDNGGWDAFVELYGPSMRPLFDFSWLSLKTLLSLALVGACITLGAYLGHK
notes: also called endogenous murine Bcl-2; mouse Bcl-2 wild-type
Turning to B1, the binding result in test [1], in test [2] and in test [3] was “binds” each time.

B2: murine Bax (endogenous p21 of FL5.12 cells, Bax alpha) (other)
chain: MDGSGEQLGSGGPTSSEQIMKTGAFLLQGFIQDRAGRMAGETPELTLEQPPQDASTKKLSECLRRIGDELDSNMELQRMIADVDRDSPREVFFRVAADMFADGNFNTGRVVALFYFASKLVLKALCTKVPELIRTIMGWTLDFLRERLLGWIQDQGGWEGLLSYFGTPTWQTVTIFVAGVLTASLTIWKKMG
notes: also called murine p21 protein; mouse p21
B2: the binding result in test [4] and in test [5] was “no binding” in each case.
